Test results from the DeepSol protein solubility set.

Assay: soluble on expression in E. coli; label from the status in PepcDB or PDB records

Soluble on expression in E. coli, not soluble:
MSNSDDEIQEIEAKRQKMSQEDSEVEIEILDEPEQGKLKNSSMSDEQKLHEFAIITATDEAFAQSILQDVDWDLKKALDVFYGSEAFAEARSAAVMGASSSMASSGAAVMTAEDLKGFEVSVMSWNIDGLDGRSLLTRMKAVAHIVKNVNPDILFLQEVVDRDLAPIDKLQSLYKIYYSNKGCQYYTAILVSKMFDVEKHDVIHFQNSGMYRTLQILEGSIGGLKVFLLNTHLESTREHRPQRCAQFGFCMDKVREIIAQNPGALVFFGGDLNLRDEEVSRVPDGVKDAWEAAGSDNKTKFTWDTFKNDNKQGFHGAKMRFDRLYWSGPLDKVKFTLEGRQRIRSCLCFPSDHWAINATFFA
MSNVIFSQKLYDTAQMVVDGCMGDADPACQTACPMHTDVKQYVRLAGEGNYQEALDLIRGKLFLPQTLGRICAHPCEAACRRNTEYNQPISVAGIKRFVAEKMDKQSNWDLTVANDSGKKIAIVGAGPAGAQAAIELRRSGHQVTIYEKLNVYGGMMRVGIPEYRLPRDVIDFEYGYLDMLGIETKFGIEIGKDISFNELRLSHDAIILAHGAHVGSIIPLPGHKAQGVFSAVEYLKEVSETRDFPRAGKRIMVIGGGDVAMDCARSSWRIGVDEVHQCSLEEMAKLPASQIEIDESLEEGVLFNAGWGPISIEETDGKVTGIVLKKVISIFDENGNFSPSYSDETRTIAVDTVIFATGQVVADITDGALEQTRGGRYVVDKDTLASSVDGVYVAGDACGGNIVVEAMALGHKAALSIERQFAKRPLTENRDFEKEYNYPSRLDIPLPKGTTDTPRLHGQLRDAEERKQDFKQVDLGFSEEQIKQEASRCLQCTCKLCMNECVMMNDFGDCPKTLFSDFINNKTMDPLLAYSCNACDQCTIVCPKDYPMKEMFLSARVDFVNANGGNSPIPGHKAINMHQKLGFSKFFTMAKRTVASKLEHHHHHH
MSNWTTYPQKNLTQAEQLAQLIKEADALVVGIGAGMSAADGFTYIGSRFETAFPDFIAKYQFLDMLQASLFDFEDWQEYWAFQSRFVALNYLDQPVGQSYLDLKEILGTKDYHIITTNADNAFWVAGYDPHNIFHIQGEYGLWQCSQHCHQQTYKDDTVIRQMIAEQKNMKVPGQLIPHCPECEAPFEINKRNEEKGMVEDADFHAQKARYEAFLSEHKEGKVLYLEIGVGHTTPQFIKHPFWKRVSENPNALFVTLNHKHYRIPLSIRRQSLELTEHIAQLISATKTIYQKS
MSPAQIIRTPHSFPPSFTGTSSSAENSHAQSPQQVLTRAFVASGELNAAFGRTSTASEQDFTSLLGTLQRELERKTLSFPDIAELANQLAEAAKGDQGGHWLGRDEQQTLKGMIDRCKSQLAHTHASDASYDPLAQVCENLKTARLHQSISQMTGEAHAKVRGVPDLLALIQLDPDVLAEKPVGMTSYVNFGSFICMAKARTAELSEDLRSDPNEVALLLHPHADTILELERLPDALAALTENCPDTPTRDDLRSLAKETGELLQQLRANDLLPRSEEVSSYQGETSVRSREVVEPKLTLCQAGGNGQGQLEASSARPESLRYAPTRAASSGSEARVPGQAVGGKIADDAQKVAGLYAEKKRTNWTQANGVAGKISHKIQSLLGMRDAGSRVQAFVAFMADGKGRPGATMLDLGDGWMRATRVIKGEAALIDFQCDSDGKVVDARHPGRFPVLPQGNEREAFKTVLQELKFRGAETLSKVPVYYVNRNTRGYVIPTHGYVVAGHPNRGRKSGAVLYGVGGDPKRGPVALDEKLLGHLVGRSDSKTSSKLSAPVKAAISALAGASFATREDFYDAYCAVRGDAVDPLERHNEISSIYRLLPLSTMEMWPKKADDYRVARPA
MSPLWLVVFIVPLASGISLSDCSKKNSCYGSPVNCQPGIDCHVLLRFEDDGTLDVHLQNFTAPDGYVALAYNSNQNAPTEYLICIPHERKRLRGISSQGEIITITEQNMAQYVAQMDTNTFICSFVGKEIPSNFRMQSNFVVSEGLFANESNIPTTYKLEPISTDSVFFHPIAATIGRQDEALSEDEEKLATDLLGKVQRLSDHDSESTDMEAILNEKNRFTIEEFEEKLFSAMSNRRRPIKKFEREEEDQDDDEYSEVEEKESHPKKRREHKKGRHTRVLSDEQEEDYDQYEDDMPSKKRKRPFNSEELENGEDVDFGKKSNKNSQKGTFDGQRQR
MSPQDTCCPPDSWPALKVDYKPKGKLEDIGKGLKAYVVGNGPRAVIALNDVFGIESGHSKEICDAIADKGFTVVFPDVFRGKPLQVSDMSKLFDELPGWAKQFDYEPALRKDVVEVILPYLHDKLGFKSNDQIALAGFCWGAFMLFHLAGDTKLPGGPFACGVSFHPSVQIEGVFQRDPLQLIDRATCPQLLLPSAGEPDYMKEEGDAIKKLRAKPFGASCGVKTFPSMQHGWVNRGDRNDPQVVKEAQEALQLAVDFMMRHTKPKA
MSPSESGELSIIQELSQRIVEAQRQIRILDSIKWDESVKQEFFKFKGKKLPSIDKAYYDGKPLPFKVKDKQEEFRIILRDAQNQLGQYSTVTRLIRRQCEEYSRAAQMLSLRGTPSFSEMAMELYGSPDDVFYVGGPRMCEMGSLLFDVLKSLQVQLQSQADIKRYTPIQAQEILQERLGKFFDKHPGRVSVMVSDDMIADASAGADSIKLSQNAMFSDRDLRYLEVHEGWVHVGTTLNGALQPNCFFLSKGSPSSSVIQEGLAVITEVVTFSSYPGRMLKITNRVIALDKVTQGADFIDIYRYFLECGLSEEDSYNQSVRIFRGSTPTGGPFTKDLSYAKGFVLIYNYIRFAIGQKRVDTIPLLFTGKLVLDDLPLLGELKEREILTDPVYLPPPFQDLAALSAWMSFSLYLNQFDLNEIQKNFRFLLVLEHHHHHH
MSQNSLPSEVSNATIDKELYYHGLLPSEDVRQLLSNNGDFLLRSSEPEPGSPRTHILSVMFNNRLDDINSIKHFVVNFVDGKYFINDKMSFPSIQKMLGTYQRNNTEIKEGCMLVNPIRRQFWELEHDQITIHKKLGEGAFGEVSSGVMKFKKGMKTVQVAIKQVKLDKTGKAKIKDFLAEARTMRKLGHQNIIKFYGVGVLQEPLYLVMELAVNGALDSFLKKNEDLSVDKKTEMILQAAWGLEYIHGKPMLHRDIAARNCLYTDGKVKISDFGLTRNGTVYQIKPNTKSPIRWLAIETIKTMICSEKTDVWAYGVLCWEIFNNAAEPYPGMKPADVATQVANGYRMPPYPHAQAEIQTMMARCNAENPNDRPSMAEIAEILQRVTETPRPNFTAIAKKEAEELLLMNSVTTKTTARRKKSNVKLPKGMSKN
MSQRKYFGTDGVRGEVGGPVINAAFALRLGYAAGRVLAREHREHASGRGRNRPQVVIGKDTRISGYMLESALEAGLSAAGIDVLLAGPVPTPAVAYLTRTLRLAAGIVISASHNPYQDNGIKFFSAHGMKLPDDIEAAIEQALDEPLGCVGSEELGRARRMADAQGRYIEFCKSTFPHDLDLNGLKLVVDAAHGAAYNVAPHVFRELGAEVHAIGVSPDGFNINKGVGALHPESLAEEVRARGADLGIALDGDADRLQMVDGTGRIYNGDELLYAIVRERMQRGPVAGVVGTLMTNYGLERQLQQIGVGFERANVGDRYVLEQMQARGWLYGGESSGHLLCLDCHTTGDGTIAALQVLTALRRADATLAEWVADLRMYPQKMINVPLAPGLDWKTHDGLARARGAVEAELAGRGRVLIRASGTEPKLRLMVEAEDEALAQASAQKLADSLGA
MSQSDLVTIKNLRFSRSQRVIFDDIDLHVPKGKVTAIMGPSGIGKTTLLRLIGGQLLPEQGEIWFDGENIPTLSRRKLYRARKKMSMLFQSGALFTDLNVFDNVAYPLREHTELDEAMIKTLVLLKLEAVGLRGAAYLMPSELSGGMARRAALARAIALDPELIMYDEPFVGQDPITMGVLVELIRNLNRALGVTSVVVSHDVPEVMSIADWVYLLADGKVIAQGSPQALRDNPDPRVQQFLCGDADGPVPFRFPAQPIEQELFSAK
MSQSGEQRRYTLGEFFSLAGDERMELYEGTIVLMYPVPYEHEGVVANLIAEFRMALKGSPCLVFGSNLQVVLLFEDEQKGTKNVTVLPDLSIICDRTKLRQGRCYGAPDLVVEVLSPSTARNDRLLKRLYYEKAGVREYWLVDYQHKVMEKYVWQSGAFQLEDVYDAANGAAASTVFPEVRFSVKEIFAFLTS

Soluble on expression in E. coli, soluble:
MSPQTRPDAMSVVQERQVLRVGTLINPTSYYFDHDREQGFEYDLAKRFADRLGVELEMVPRFDVNDLFTMLRRGEVDIVAAGLDRTSTRAQLFRFSPPYDIISQKVVFKQGSRQRPRDLQQITDGEIVVVEGSSHHEFLKSLGDSIPTLKWRATRDHDAVELLQMVISGEVDYTITDSTALDIQRRFHPDLSVAFTVKHDQDIAWALPQGKDDSLFAAVIEYFGEIRSSGRLAHIKEQHFGHVKQFNYVTTSLFIEAVEQVLPGYIETFKEHSGSLDWRLLAAISYQESLWNPRAVSPTGVRGMMMLTLPTAKAMGVKSRLNAEQSIRGGARYLERMLNRVPARIPQPDRTWFAIAAYNIGFGHLEDARIITERQGGNPDRWVDVKKRLPLLRQKQFYRHTRYGFARGDEPVTYVGNIRRFYDTLKYLDEQGRLLEHHHHHH
MSPWERILLEEILSEPVRLVKERVRTHTGRELTYVYRPGPVAASFVLPVTERGTALLVRQYRHPTGKFLLEVPAGKVDEGETPEAAARRELREEVGAEAETLIPLPSFHPQPSFTAVVFHPFLALKARVVTPPTLEEGELLESLELPLTEVYALLAKGEIQDASTALTLFYAEPHLKRLGLL
MSQAFTESVKTSLGPNATPRAKKLIASLVQHVHDFARENHLTTEDWLWGVDFINRIGQMSDSRRNEGILVCDIIGLETLVDALTNESEQSNHTSSAILGPFYLPDSPVYPNGGSIVQKAIPTDVKCFVRGKVTDTEGKPLGGAQLEVWQCNSAGFYSQQADHDGPEFNLRGTFITDDEGNYSFECLRPTSYPIPYDGPAGDLLKIMDRHPNRPSHIHWRVSHPGYHTLITQIYDAECPYTNNDSVYAVKDDIIVHFEKVDNKDKDLVGKVEYKLDYDISLATESSIQEARAAAKARQDAEIKL
MSQDFVTLVSKDDKEYEISRSAAMISPTLKAMIEGPFRESKGRIELKQFDSHILEKAVEYLNYNLKYSGVSEDDDEIPEFEIPTEMSLELLLAADYLSI
MSQGDSNPAAIPHAAEDIQGDDRWMSQHNRFVLDCKDKEPDVLFVGDSMVQLMQQYEIWRELFSPLHALNFGIGGDTTRHVLWRLKNGELENIKPKVIVVWVGTNNHENTAEEVAGGIEAIVQLINTRQPQAKIIVLGLLPRGEKPNPLRQKNAKVNQLLKVSLPKLANVQLLDTDGGFVHSDGAISCHDMFDFLHLTGGGYAKICKPLHELIMQLLEETPEEKQTTIA
MSQLDNNLSVSVYMKGNVNNHEFEYDGIGGGDPNSGQFSLKTKLRGGKPLPFSYDIITMGFQYGFRAFTKYPEGIADYFKGSFPEAFQWNRRIEFEDGGVINMSSDITYKDKVLHGDVWALGVNFPPNGPVMKNEIVMEEPAEETLTAKNGVLVGFCPKAYLLKDGSYYYGHMTTFYRSKKSGQPLPGFHFIKHRLVKTKVEPGFKMVEQAEYATAHVCDLPKPN
MSQSRHRAEAPPLEREDSGTFSLGKMITAKPGKTPIQVLHEYGMKTKNIPVYECERSDVQIHVPTFTFRVTVGDITCTGEGTSKKLAKHRAAEAAINILKANASICFAVPDPLMPDPSKQPKNQLNPIGSLQELAIHHGWRLPEYTLSQEGGPAHKREYTTICRLESFMETGKGASKKQAKRNAAEKFLAKFSNISPENHISLTNVVGHSLGCTWHSLRNSPGEKINLLKRSLLSIPNTDYIQLLSEIAKEQGFNITYLDIDELSANGQYQCLAELSTSPITVCHGSGISCGNAQSDAAHNALQYLKIIAERK
